Values of other authors, collected in publication PMC5735807.

Columns and labels:
Fas (Homo sapiens) = Fas (Homo sapiens) (UniProt P25445)
CD36 (Homo sapiens) = CD36 (Homo sapiens) (UniProt P16671)
CD36 (Homo sapiens), sequence (P16671 2-472): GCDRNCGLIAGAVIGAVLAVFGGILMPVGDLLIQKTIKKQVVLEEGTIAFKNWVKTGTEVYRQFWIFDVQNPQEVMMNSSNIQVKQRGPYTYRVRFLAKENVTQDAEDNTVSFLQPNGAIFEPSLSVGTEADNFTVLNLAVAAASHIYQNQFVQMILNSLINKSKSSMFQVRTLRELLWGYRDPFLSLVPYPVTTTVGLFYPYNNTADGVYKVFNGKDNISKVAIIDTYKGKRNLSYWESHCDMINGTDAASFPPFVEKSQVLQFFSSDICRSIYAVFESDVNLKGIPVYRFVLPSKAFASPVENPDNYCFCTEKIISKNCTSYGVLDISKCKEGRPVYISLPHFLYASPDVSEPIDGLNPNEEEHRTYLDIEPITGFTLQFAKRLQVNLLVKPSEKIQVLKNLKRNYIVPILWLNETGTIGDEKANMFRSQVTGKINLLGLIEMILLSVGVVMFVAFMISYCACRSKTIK

FasL, sequence (P48023 1-81): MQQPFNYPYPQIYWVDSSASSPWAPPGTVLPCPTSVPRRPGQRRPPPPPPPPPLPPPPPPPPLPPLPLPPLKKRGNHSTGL
TSP1, sequence (P07996 19-1170): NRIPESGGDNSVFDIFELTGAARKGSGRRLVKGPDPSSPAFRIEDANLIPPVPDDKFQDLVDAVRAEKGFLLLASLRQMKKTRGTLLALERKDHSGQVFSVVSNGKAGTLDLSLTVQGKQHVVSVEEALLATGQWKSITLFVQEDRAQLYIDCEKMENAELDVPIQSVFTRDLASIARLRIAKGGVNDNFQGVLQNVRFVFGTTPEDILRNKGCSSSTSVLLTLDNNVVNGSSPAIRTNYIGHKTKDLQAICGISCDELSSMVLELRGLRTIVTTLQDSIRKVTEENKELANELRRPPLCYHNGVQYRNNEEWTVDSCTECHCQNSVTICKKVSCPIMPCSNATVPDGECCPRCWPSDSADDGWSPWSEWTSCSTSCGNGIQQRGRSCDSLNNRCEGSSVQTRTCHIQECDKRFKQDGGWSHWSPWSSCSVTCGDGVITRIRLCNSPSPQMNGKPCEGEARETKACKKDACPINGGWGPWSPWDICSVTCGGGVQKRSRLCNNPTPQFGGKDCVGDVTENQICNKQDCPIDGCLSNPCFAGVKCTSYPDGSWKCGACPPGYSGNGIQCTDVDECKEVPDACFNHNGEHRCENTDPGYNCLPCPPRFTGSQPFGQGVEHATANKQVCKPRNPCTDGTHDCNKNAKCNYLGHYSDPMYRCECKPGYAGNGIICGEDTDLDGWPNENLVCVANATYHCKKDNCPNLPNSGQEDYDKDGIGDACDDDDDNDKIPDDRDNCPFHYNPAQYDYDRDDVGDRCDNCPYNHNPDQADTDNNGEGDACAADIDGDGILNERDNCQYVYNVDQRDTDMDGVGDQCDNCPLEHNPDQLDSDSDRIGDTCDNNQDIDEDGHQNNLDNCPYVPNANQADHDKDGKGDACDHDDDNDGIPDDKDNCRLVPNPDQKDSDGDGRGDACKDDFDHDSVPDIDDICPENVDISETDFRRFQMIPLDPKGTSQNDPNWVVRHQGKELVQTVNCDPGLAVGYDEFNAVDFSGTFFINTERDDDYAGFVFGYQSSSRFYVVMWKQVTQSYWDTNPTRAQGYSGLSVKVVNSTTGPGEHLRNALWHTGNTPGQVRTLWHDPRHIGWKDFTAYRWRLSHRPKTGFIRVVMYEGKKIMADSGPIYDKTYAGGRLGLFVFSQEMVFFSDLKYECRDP
Fas (Homo sapiens), sequence (P25445 26-335): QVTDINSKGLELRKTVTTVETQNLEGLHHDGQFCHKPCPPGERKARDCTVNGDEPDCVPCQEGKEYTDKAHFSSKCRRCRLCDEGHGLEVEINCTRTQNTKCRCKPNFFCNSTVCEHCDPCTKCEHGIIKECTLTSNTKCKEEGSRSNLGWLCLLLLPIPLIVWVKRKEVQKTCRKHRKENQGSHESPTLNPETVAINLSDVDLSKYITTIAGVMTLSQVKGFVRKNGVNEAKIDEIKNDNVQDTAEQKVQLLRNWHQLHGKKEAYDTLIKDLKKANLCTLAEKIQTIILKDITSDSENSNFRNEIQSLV

Row | Substance | Kd (Fas (Homo sapiens)) [nM] | Kd (CD36 (Homo sapiens)) [nM]
1 | FasL (from UniProt P48023) | 0.4 | 
2 | TSP1 (from UniProt P07996) |  | 230
